One substance from publication PMC11432007 can be followed below.

The experiment has as its target GABAA receptor β2 subunit extracellular domain fragment Gln25–Gly243 (human (abstract, Figure 1); 'bovine gene' in the methods) (UniProt P47870). Put plainly: negative staining electron microscopy; single refolded subunit fragment, dialysed into 10 mM glycine pH 10.3; 2% uranyl acetate on carbon-coated copper grid, 120 kV TEM; 2D classification in Relion from manually picked particles of 20 micrographs.

By stoichiometry N is commonly meant a count of units in the complex or per binding partner. For “GABAA receptor β2 subunit extracellular domain fragment Gln25–Gly243 (from UniProt P47870 25-243) (domain or fragment)”, the stoichiometry N stood at 5.
